Molecular target: T1, FLAG epitope-tagged holoreceptor of human type 1 insulin-like growth factor receptor (hIGFR) (human, UniProt P08069 31-1367)
T1 construct: The holoreceptor was captured on 96 well plates coated with anti-FLAG monoclonal antibody; also called IGF-R1; IGF-1R
Experiment: competitive displacement of 125I-labeled human insulin from plate-captured FLAG-tagged hIGFR

T1 sequence (P08069 31-1367 limits assumed): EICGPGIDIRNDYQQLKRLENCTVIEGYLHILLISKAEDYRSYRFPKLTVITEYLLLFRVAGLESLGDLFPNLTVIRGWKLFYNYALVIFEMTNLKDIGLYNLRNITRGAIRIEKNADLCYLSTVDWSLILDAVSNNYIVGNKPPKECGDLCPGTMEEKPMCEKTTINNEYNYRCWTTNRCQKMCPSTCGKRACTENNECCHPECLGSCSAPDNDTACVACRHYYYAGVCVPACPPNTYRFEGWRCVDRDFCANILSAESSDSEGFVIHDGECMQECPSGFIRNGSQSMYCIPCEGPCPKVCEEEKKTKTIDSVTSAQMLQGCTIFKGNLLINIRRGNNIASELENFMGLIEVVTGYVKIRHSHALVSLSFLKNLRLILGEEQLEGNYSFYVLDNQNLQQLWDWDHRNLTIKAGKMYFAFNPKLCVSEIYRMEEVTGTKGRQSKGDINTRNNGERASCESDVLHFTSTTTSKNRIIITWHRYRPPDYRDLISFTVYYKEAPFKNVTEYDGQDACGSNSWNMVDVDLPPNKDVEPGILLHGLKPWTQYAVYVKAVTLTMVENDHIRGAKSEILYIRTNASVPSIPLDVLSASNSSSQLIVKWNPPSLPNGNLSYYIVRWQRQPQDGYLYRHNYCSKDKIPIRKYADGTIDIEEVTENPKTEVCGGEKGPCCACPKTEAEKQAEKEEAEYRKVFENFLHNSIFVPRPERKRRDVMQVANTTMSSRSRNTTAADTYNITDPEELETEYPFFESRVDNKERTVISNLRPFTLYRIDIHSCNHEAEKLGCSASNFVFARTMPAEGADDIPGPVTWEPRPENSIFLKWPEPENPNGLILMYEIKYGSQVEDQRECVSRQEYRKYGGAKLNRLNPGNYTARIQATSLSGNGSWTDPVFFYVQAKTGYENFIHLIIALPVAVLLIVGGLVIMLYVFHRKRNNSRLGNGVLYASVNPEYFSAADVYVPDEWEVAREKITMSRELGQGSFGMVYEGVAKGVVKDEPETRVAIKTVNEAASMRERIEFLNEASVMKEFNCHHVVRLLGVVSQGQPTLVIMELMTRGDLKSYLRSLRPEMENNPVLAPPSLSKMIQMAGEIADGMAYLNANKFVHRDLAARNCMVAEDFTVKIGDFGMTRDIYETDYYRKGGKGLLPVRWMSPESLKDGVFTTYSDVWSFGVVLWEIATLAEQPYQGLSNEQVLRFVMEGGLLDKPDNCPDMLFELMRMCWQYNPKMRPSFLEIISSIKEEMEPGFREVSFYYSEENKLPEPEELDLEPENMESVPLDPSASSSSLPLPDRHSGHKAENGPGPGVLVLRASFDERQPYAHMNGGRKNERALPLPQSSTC

B1: des-[B1, B2], Glu^B3, His^A8, Glu^A14, Gln^A17, des-B30-insulin (T-0706) (ligand)
chain 1: GIVEQCCHSICSLEQLQNYCN
chain 2: EQHLCGSHLVEALYLVCGERGFFYTPK
modifications: not fully specified
notes: Formulated without zinc; also called HA8 EA14 QA17 des[B1-B2]; EB3 desB30
In the case of B1, the “Binding Affinity” value is reported as 0.16 and the “IGF1-R (Rel. Aff.), relative to insulin lispro” value is reported as 18%.

— patent US20220112262A1 (CASE WESTERN RESERVE UNIVERSITY, published 2022)
